Where a chain is given by its changes, count along the chain named.
Tests used:
[1] = molecular target: T1, mouse LAG-3 expressed on cells (mouse, UniProt Q61790 24-521); assay: flow cytometry on HEK cells expressing mouse LAG-3
T1 construct: also called mLAG-3; murine LAG-3 HEK
T1 sequence: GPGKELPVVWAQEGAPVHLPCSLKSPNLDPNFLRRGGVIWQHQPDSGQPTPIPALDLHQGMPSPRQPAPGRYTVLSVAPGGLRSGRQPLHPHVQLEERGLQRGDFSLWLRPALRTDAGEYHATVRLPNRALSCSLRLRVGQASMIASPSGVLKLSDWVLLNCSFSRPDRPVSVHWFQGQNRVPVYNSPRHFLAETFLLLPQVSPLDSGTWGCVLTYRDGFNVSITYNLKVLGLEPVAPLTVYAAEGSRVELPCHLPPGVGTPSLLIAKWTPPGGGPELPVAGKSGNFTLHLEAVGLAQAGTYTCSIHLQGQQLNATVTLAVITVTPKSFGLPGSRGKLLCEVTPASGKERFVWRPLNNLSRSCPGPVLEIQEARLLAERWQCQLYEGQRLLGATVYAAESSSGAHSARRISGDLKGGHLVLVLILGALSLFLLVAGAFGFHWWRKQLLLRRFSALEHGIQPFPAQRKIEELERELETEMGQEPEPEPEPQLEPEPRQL
Procedure: HEK cells expressing mLAG-3 grown in DMEM (Life Technologies, 61965-026) containing 10% FBS (Life Technologies, 10270-1-6), 100 μg/ml Hygromycin B (Melford Laboratories Ltd, Z2475), 15 μg/ml Blasticidin (Melford Laboratories Ltd, B1105) and 1 μg/ml Doxycyclin (Sigma, D9891) were detached from tissue culture flasks using cell dissociation buffer (Life Technologies, 13151-014). Cells were collected by centrifuged at 1500 rpm for 3 min at 4° C. to pellet the cells and then resuspended in 1×DPBS then seeded in V-bottom 96-well plates (Costar, 3897) at 1.2×10⁵ cells/well in 30 μl. A 1:1 volume of a dilution series of the mAb² (or control mAb) was added and incubated with the cells for 1 h at 4° C. The plates were washed and secondary antibody (Anti-human Fc-488, Jackson ImmunoResearch, 109-546-098) was diluted 1:1000 in PBS and 60 μl was added to the cells for 30 min at 4° C. (plates were kept in the dark). The plates were then washed and the cells resuspended in 60 μl PBS containing 1 μg/ml DAPI (Biotium, 40043). The plates were read using Canto II flow cytometer (BD Bioscience). Dead cells were excluded and the fluorescence in the FITC channel (488 nm/530/30) was measured. The data was fitted using log (agonist) vs response in GraphPad Prism Software.

[2] = molecular target: T2, mouse LAG-3 Fc (R&D Systems, 3328-L3-050) (mouse, UniProt Q61790 24-442); assay: flow cytometry; inhibition of mouse LAG-3 Fc binding to MHC class II on A375 cells
T2 construct: Bought protein; also called mLAG-3 Fc; murine LAG-3Fc; not shown: Fc tag of the bought fusion protein
T2 sequence: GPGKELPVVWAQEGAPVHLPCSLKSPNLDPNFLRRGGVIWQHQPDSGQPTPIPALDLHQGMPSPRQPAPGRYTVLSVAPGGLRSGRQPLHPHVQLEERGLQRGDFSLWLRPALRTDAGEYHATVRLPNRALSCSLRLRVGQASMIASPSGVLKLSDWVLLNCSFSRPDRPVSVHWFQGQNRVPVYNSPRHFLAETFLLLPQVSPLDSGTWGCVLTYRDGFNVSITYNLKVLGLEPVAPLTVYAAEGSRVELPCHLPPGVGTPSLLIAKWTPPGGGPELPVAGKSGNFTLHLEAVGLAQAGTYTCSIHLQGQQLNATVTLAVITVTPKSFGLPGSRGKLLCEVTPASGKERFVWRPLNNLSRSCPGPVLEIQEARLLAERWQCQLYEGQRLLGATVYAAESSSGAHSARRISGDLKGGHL
Procedure: (§1) The plates were centrifuged at 1500 rpm for 3 min at 4° C. to pellet the cells. […] LAG-3/Fcab mix was added to the A375 cells and incubated for 1 h at 4° C. Cells were washed. Secondary antibody (Alexa Fluor 488 conjugated goat anti-human Fc F(ab′)₂, Jackson Immunoresearch, 109-546-098 or Goat anti-mouse IgG (H+L) 488 conjugate, Life Technologies, A-1101) was diluted 1:1000 in PBS and 100 μl was added to the cells for 30 min at 4° C. (plates were kept in the dark). Cells were washed once in PBS and resuspended in 100 μl PBS+1 μg/ml DAPI (Biotium, 40043). The plates were read on a BD FACSCanto II cytometer (BD Biosciences) and the data analysed using FlowJo software.

[3] = molecular target: T2, mouse LAG-3 Fc (R&D Systems, …); assay: SPR, Biacore 3000; mLAG-3 Fc immobilised, Fcab injected
Procedure: A Biacore 3000 (GE Healthcare) was used to measure the affinity of the surrogate Fcabs specific for mouse LAG-3 to mouse LAG-3. […] Fcabs were diluted in HBS-P buffer (GE Healthcare, BR-1003-68) and injected at various concentrations (fourfold dilutions from 100 nM) for 3 min at 20 μl/min and then allowed to dissociate in buffer for 12 min. The chip was regenerated by injection of 10 mM glycine pH 2.5 for 30 s at 30 μl/min. Data was double reference subtracted and analyzed using BIAevaluation 3.2 software to calculate kinetic constants.

[4] = molecular target: T1, mouse LAG-3 expressed on cells; assay: flow cytometry on HEK cells expressing mouse LAG-3; remark: listed apart in the source
Procedure: The plates were centrifuged at 1500 rpm for 3 min at 4° C. to pellet the cells. […] (plates were kept in the dark). […] The plates were read using Canto II flow cytometer (BD Bioscience). Dead cells were excluded and the fluorescence in the FITC channel (488 nm/530/30) was measured. The data was fit using log (agonist) vs response in GraphPad Prism Software.

[5] = molecular target: T3, recombinant Fc-tagged human LAG-3 (R&D Systems, 2319-L3-050) (human, UniProt P18627 23-450); assay: flow cytometry; inhibition of human LAG-3 Fc binding to MHC class II on A375 cells
T3 construct: Bought protein; also called LAG-3 Fc; human LAG-3-Fc; not shown: Fc tag of the bought fusion protein
T3 sequence: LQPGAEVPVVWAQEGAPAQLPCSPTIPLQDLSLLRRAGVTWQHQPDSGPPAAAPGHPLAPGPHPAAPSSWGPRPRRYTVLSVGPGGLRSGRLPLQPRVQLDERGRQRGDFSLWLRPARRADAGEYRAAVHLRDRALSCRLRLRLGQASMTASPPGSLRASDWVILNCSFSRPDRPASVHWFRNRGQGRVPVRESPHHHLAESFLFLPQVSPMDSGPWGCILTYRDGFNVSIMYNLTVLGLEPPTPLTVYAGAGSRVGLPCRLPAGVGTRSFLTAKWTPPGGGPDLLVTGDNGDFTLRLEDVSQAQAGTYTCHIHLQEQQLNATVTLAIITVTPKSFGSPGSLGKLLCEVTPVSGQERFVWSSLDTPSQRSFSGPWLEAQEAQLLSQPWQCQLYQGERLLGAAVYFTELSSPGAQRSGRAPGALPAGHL
Procedure: as §1

[6] = molecular target: T4, murine PD-L1 expressed on cells (mouse, UniProt Q9EP73 19-290); assay: flow cytometry on HEK cells expressing murine PD-L1
T4 construct: also called murine PD-L1 HEK
Procedure: The affinity of the mAb² (all containing the LALA mutations) binding to cell expressed murine LAG-3 or murine PD-L1 was determined using flow cytometry. HEK cells expressing murine LAG-3 or murine PD-L1 grown in DMEM (Life Technologies, 61965-026) containing 10% FBS (Life Technologies, 10270-1-6), 100 μg/ml Hygromycin B (Melford Laboratories Ltd, Z2475), 15 μg/ml Blasticidin (Melford Laboratories Ltd, B1105) and 1 μg/ml Doxycyclin (Sigma, D9891) were detached from tissue culture flasks using cell dissociation buffer (Life Technologies, 13151-014) and seeded in V-bottom 96-well plates (Costar, 3897) at 2×10⁵ cells/well. The plates were centrifuged at 1500 rpm for 3 min at 4° C. to pellet the cells. A dilution series of the mAb² (or control mAb) were incubated with the cells in a 60 μl volume for 1 h at 4° C. The plates were washed and secondary antibody (Anti-human Fc-488, Jackson ImmunoResearch, 109-546-098 for mAb² or Anti-Rat IgG (H+L), Alexa Fluor 488, ThermoFisher, A-11006 for anti-LAG-3 control, C9B7W) was diluted 1:1000 in PBS and 50 μl was added to the cells for 30 min at 4° C. (plates were kept in the dark). […] The plates were read using Canto II flow cytometer (BD Bioscience). Dead cells were excluded and the fluorescence in the FITC channel (488 nm/530/30) was measured. […] The plates were read on a BD FACSCanto II cytometer (BD Biosciences) and the data analysed using FlowJo.

[7] = molecular target: T1, mouse LAG-3 expressed on cells; assay: flow cytometry on HEK cells expressing murine LAG-3
Procedure: The affinity of the mAb² (all containing the LALA mutations) binding to cell expressed murine LAG-3 or murine PD-L1 was determined using flow cytometry. HEK cells expressing murine LAG-3 or murine PD-L1 grown in DMEM (Life Technologies, 61965-026) containing 10% FBS (Life Technologies, 10270-1-6), 100 μg/ml Hygromycin B (Melford Laboratories Ltd, Z2475), 15 μg/ml Blasticidin (Melford Laboratories Ltd, B1105) and 1 μg/ml Doxycyclin (Sigma, D9891) were detached from tissue culture flasks using cell dissociation buffer (Life Technologies, 13151-014) and seeded in V-bottom 96-well plates (Costar, 3897) at 2×10⁵ cells/well. The plates were centrifuged at 1500 rpm for 3 min at 4° C. to pellet the cells. A dilution series of the mAb² (or control mAb) were incubated with the cells in a 60 μl volume for 1 h at 4° C. The plates were washed and secondary antibody (Anti-human Fc-488, Jackson ImmunoResearch, 109-546-098 for mAb² or Anti-Rat IgG (H+L), Alexa Fluor 488, ThermoFisher, A-11006 for anti-LAG-3 control, C9B7W) was diluted 1:1000 in PBS and 50 μl was added to the cells for 30 min at 4° C. (plates were kept in the dark). The plates were washed then cells were resuspended in 50 μl FACS Cell Fix (BD Bioscience, 340181) for 15 minutes, then washed and resuspended in 100 μl PBS containing 1 μg/ml DAPI (Biotium, 40043). The plates were read using Canto II flow cytometer (BD Bioscience). Dead cells were excluded and the fluorescence in the FITC channel (488 nm/530/30) was measured. The data was fit using log (agonist) vs response in GraphPad Prism Software. The plates were read on a BD FACSCanto II cytometer (BD Biosciences) and the data analysed using FlowJo.

[8] = molecular target: T5, human PD-L1 Fc (R&D Systems, 156-B7) (human, UniProt Q9NZQ7 19-239); assay: SPR, BIAcore T200; mAb captured on Protein L, PD-L1 Fc injected
T5 construct: Bought protein; not shown: Fc tag of the bought fusion protein

[9] = molecular target: T3, recombinant Fc-tagged human LAG-3 (R&D …); assay: SPR, mAb captured on Protein L, human LAG-3 Fc injected (from 0.5 nM)
Procedure: Protein L (Thermo, 21189) was immobilized on flow cells 1 and 2 of a Series S CM5 chip (GE Healthcare, BR-1005-30) by amine coupling (GE Healthcare, BR-1000-50) to a surface density of 2000 RU by following the manufacturer's instructions for the BIAcore T200 instrument. […] The association time was 3 min and the dissociation time was 6 min. Running buffer was HBS-P (GE Healthcare, BR-1003-68). Both flow cells were regenerated by injecting 10 mM sodium hydroxide (NaOH) at a flow rate of 100 μl/min for 20 seconds. The data were analysed by double referencing against the blank flow cell.
The binding kinetics were fit with a 1:1 Langmuir model to generate binding association (kₐ) and dissociation (kd) rates. Equilibrium binding constants (KD) were calculated by dividing the dissociation rate by the association rate for each sample. Data analysis was performed with BiaEvaluation software version 3.2.

T5 sequence (Q9NZQ7 19-239 limits assumed): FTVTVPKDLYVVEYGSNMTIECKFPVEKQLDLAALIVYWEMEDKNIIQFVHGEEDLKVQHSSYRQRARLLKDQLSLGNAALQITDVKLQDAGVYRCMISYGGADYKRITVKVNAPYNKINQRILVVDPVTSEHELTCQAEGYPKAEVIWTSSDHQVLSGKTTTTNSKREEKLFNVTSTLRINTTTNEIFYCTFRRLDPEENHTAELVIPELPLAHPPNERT
T4 sequence (Q9EP73 19-290 limits assumed): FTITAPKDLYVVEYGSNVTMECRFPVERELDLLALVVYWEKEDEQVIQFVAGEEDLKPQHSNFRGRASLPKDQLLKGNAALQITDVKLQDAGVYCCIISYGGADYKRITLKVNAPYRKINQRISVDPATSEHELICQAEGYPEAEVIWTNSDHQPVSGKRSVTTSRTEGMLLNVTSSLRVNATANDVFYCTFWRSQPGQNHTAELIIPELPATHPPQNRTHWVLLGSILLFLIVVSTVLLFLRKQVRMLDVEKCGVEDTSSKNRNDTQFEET

B1: anti-mouse LAG-3 Fcab FS18-7-108-29 (designed binder)
chain: TCPPCPAPELLGGPSVFLFPPKPKDTLMISRTPEVTCVVVDVSHEDPEVKFNWYVDGVEVHNAKTKPREEQYNSTYRVVSVLTVLHQDWLNGKEYKCKVSNKALPAPIEKTISKAKGQPREPQVYTLPPSWDEPWGEDVSLTCLVKGFYPSDIVVEWESNGQPENNYKTTPPVLDSDGSFFLYSKLTVPFERWMWPDEFSCSVMHEALHNHYTQKSLSLSPG
notes: Fcab (truncated hinge, CH2, CH3)
With B1 the EC50 [1] was 2.6 nM, the IC50 [2] was 0.6 nM and the Kd [3] was 1.5 nM. The EC50 [4] was 4.5 nM.

B2: anti-human LAG-3 Fcab FS18-7-33 (designed binder)
chain: B1 chain with V154A, N165D, F190Y, E191D, M194V
With B2 the IC50 [5] was 2.6 nM.

B3: anti-mouse LAG-3 Fcab FS18-7-108-35 (designed binder)
chain: B1 chain with V154S
notes: as for B1
In the case of B3, the IC50 [2] is reported as 0.7 nM, the Kd [3] is reported as 2.1 nM and the EC50 [4] is reported as 4.5 nM.

B4: anti-human LAG-3 Fcab FS18-7-78 (designed binder)
chain: B1 chain with V154A, Q162Y, P163K, N165E, F190Y, E191D, M194V
B4 gave an IC50 [5] of 2.4 nM.

B5: anti-mouse LAG-3/PD-L1 mAb2 FS18-7-108-29/S1 with LALA mutation (bispecific antibody)
heavy: not shown
light: DIQMTQSPSSLSASVGDRVTITCRASQDVSTAVAWYQQKPGKAPKLLIYSASFLYSGVPSRFSGSGSGTDFTLTISSLQPEDFATYYCQQYLFTPPTFGQGTKVEIKRTVAAPSVFIFPPSDEQLKSGTASVVCLLNNFYPREAKVQWKVDNALQSGNSQESVTEQDSKDSTYSLSSTLTLSKADYEKHKVYACEVTHQGLSSPVTKSFNRGEC
notes: also called FS18-29/S1
Binder B5 has an EC50 [6] of 11.9 nM and an EC50 [7] of 2.27 nM.

B6: anti-mouse LAG-3/PD-L1 mAb2 FS18-7-108-35/S1 with LALA mutation (bispecific antibody)
heavy: not shown
light: B5 light
notes: also called FS18-35/S1
B6 showed an EC50 [6] of 12.3 nM and an EC50 [7] of 3.84 nM.

B7: anti-human PD-L1 mAb 84G09 with LALA mutation (antibody, human IgG1, kappa, L234A L235A)
heavy: not shown
light: DIQMTQSPSSLSASVGDRVTITCRASQSISSYLNWYQQKPGKAPKPLIYVASSLQSGVPSSFSGSGSGTDFTLTISSLQPEDFATYYCQQSYSNPITFGQGTRLEIKRTVAAPSVFIFPPSDEQLKSGTASVVCLLNNFYPREAKVQWKVDNALQSGNSQESVTEQDSKDSTYSLSSTLTLSKADYEKHKVYACEVTHQGLSSPVTKSFNRGEC
notes: Human IgG1 with LALA; also called 84G09LALA; 84G09 LALA
For B7, the Kd [8] was 1.2 nM, the koff [8] was 0.00046 s⁻¹ and the kon [8] was 380000 M⁻¹ s⁻¹. B7: no binding [9].

From US20220185894A1 (F STAR THERAPEUTICS, published 2022)
